The record followed here is patent EP1897948A1 (ZymoGenetics, Inc., dated 2008).

The data set concerns the molecule itself. Put plainly: western blot of BHK media, reducing (29 kDa) against non-reducing (49 kDa).

B1: Human Ztgfβ-9 protein (ligand)
chain: AGAPRAGRRPARPRGCADRPEELLEQLYGRLAAGVLSAFHHTLQLGPREQARNASCPAGGRPADRRFRPPTNLRSVSPWAYRISYDPARYPRYLPEAYCLCRGCLTGLFGEEDVRFRSAPVYMPTVVLRRTPACAGGRSVYTEAYVTIPVGCTCVPEPEKDADSINSSIDKQGAKLLLGPNDAPAGP
notes: Expressed in BHK cells without a tag and secreted into the medium; also called transforming growth factor beta-9
B1: the binding result is given as “binds”.
